Experimental data: US20090208491A1 (published 2009)
Residue numbers refer to the chain shown, from its start.

T1: Notch1 antigen protein (amino acids 1-220 of human Notch1 with human Fc-tag or histidine-tag) (human, UniProt P46531 19-220)
T1 construct: range 19-220; Made in insect cells with baculovirus; also called Notch1 antigen corresponding to EGF repeats 1-5; not shown: C-terminal human Fc-tag or histidine-tag
T1 sequence (looked up): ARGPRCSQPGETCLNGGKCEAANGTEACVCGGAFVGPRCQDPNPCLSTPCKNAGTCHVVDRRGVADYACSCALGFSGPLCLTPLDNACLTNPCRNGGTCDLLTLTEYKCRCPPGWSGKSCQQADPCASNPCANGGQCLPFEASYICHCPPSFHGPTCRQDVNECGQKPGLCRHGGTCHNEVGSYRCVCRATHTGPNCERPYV

B1: murine monoclonal antibody 13M57 (antibody, from another filing, V domains shown)
VH: EVNLVESGGDLVQPGGSLRLSCAASGFTFSSYTMSWVRQTPEKRLEWVAYIDYGGDFTSYSDAIRGRFTISRDNAKNTLYLQMSSLKSEDTAIYYCSRRRYDAMDYWGQGTSVIVSS
VL: DIQMTQSTSSLSASLGDRVTVSCSASQAISNYLNWYQQKPDGTLKLLIYYTTNLHSGVPSRFSGSGSGTDYSLTISNLEPEDIATYYCQQYSKFPWTFGGGTKLEIKR
B2: 13M57H5 humanized heavy chain cotransfected with the murine 13M57 light chain (antibody, human IgG2, V domains shown)
VH: B1 VH with N3Q, D10G, T40A, E42G, S84N, K87R, S88A, S112L, I114T
VL: DIQMTQSTSSLSASLGDRVTVSCSASQAISNYLNWYQQKPDGTLKLLIYYTTNLHSGVPSRFSGSGSGTDYSLTISNLEPEDIATYYCQQYSKFPWTFGGGTKLEIK
notes: Heavy chain fused to the human IgG2 constant region; tested as conditioned medium from HEK 293 cells
B3: humanized 13M57H5L6 antibody (antibody, human IgG2, V domains shown)
VH: B1 VH with N3Q, D10G, T40A, E42G, S84N, K87R, S88A, S112L, I114T
VL: DIQMTQSPSSLSASVGDRVTITCSASQAISNYLNWYQQKPGKAPKLLIYYTTNLHSGVPSRFSGSGSGTDYSFTISSLQPEDIATYYCQQYSKFPWTFGGGTKVEIKR
notes: Variant heavy chains were fused in-frame to the human IgG2 constant region; also called 13M57 L6H5; humanized L6H5 13M57
B4: humanized 13M57H5L21 antibody (antibody, human IgG2, V domains shown)
VH: B1 VH with N3Q, D10G, T40A, E42G, S84N, K87R, S88A, S112L, I114T
VL: B3 VL with G41D, K42G, A43T, P44L
notes: Human IgG2 heavy chain constant region; also called 13M57 L21H5; ATCC PTA-8424

Legend:
[1] = molecular target: Notch1 antigen protein (amino acids 1-220 of human Notch1 with human Fc-tag or histidine-tag) (human) (UniProt P46531); test: Biacore, binding to Notch1 antigen
[2] = molecular target: T1, Notch1 antigen protein (amino acids …); test: ELISA of HEK 293 conditioned media on Notch1 antigen; heavy chain cotransfected with the murine 13M57 light chain
Procedure: The functionality of each candidate variant humanized heavy and light chain was tested by cotransfection into mammalian cells. Each of the eleven candidate humanized 13M57 heavy chains described above was cotransfected with the murine 13M57 light chain cDNA into HEK 293 cells, and conditioned media was then assayed for Notch1 antigen binding activity by ELISA. […] This variant—“13M57H5”—contained, in additional to murine CDRs, murine residues at five framework positions, Kabat positions 44, 46, 49, 89, and 93 (FIG. 3). The 13M57H5 humanized heavy chain was then cotransfected with each of the eleven candidate humanized light chains into HEK293 cells, and conditioned media was again assayed for antigen binding by ELISA. […] To evaluate the importance of the individual murine residues in 13M57 L5 and 13M57 L6, a farther series of candidate variant light chains were synthesized that combined one or more of the murine residues at Kabat positions 42-45 and 89-90. These candidate variant light chains were then tested as described above.

[3] = molecular target: T1, Notch1 antigen protein (amino acids …); test: Biacore, binding to Notch1 antigen
Description: The two best humanized 13M57 antibodies (13M57H5 L6 and 13M57H5 L21) were then further characterized. The humanized 13M57 antibodies were purified using protein A chromatography.

Binder	Kd [3]	also measured
B1		Kd [1]: 50 pM
B2		binding result [2]: binds
B3	~80 pM	
B4	~100 pM	
